The record followed here is paper doi:10.1101/2024.03.26.586731.

Holding throughout (assay): high-speed atomic force microscopy
The target of test [1] is IgG1-DNP-E430G (human).
Test [2] deals with IgG3-DNP-E430G (human).
The target of test [3] is IgG4-DNP-E430G (human).
The target in test [4] is IgG2-DNP-E430G (human).

The term stoichiometry N denotes a count of units in the complex or per binding partner. In the case of IgG1-DNP-E430G (antibody), in test [1], the stoichiometry N was < 6.

On to IgG3-DNP-E430G (antibody), for which the stoichiometry N in test [2] was < 6.

With IgG4-DNP-E430G (antibody), the stoichiometry N in test [3] is < 6.

For the substance IgG2-DNP-E430G (antibody), the stoichiometry N in test [4] is < 6.
